In publication PMC11211510, “Sequence-specific dynamic DNA bending explains mitochondrial TFAM’s dual role in DNA packaging and transcription initiation” one finds binding result and Kd data, which are given here for 6 molecules.

In series [1] the target is T1, TFAM (UniProt Q00059 43-245).
T1 sequence: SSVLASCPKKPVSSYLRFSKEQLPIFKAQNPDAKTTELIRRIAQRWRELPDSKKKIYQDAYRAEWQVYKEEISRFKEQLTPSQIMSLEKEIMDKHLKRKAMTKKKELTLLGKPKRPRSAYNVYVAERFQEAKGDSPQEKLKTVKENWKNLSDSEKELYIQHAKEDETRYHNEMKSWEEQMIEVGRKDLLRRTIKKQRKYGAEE
In words: smFRET; bending equilibrium K(F/P) 1.70 ± 0.74; 50 mM Tris acetate pH 7.5, 100 mM Na glutamate, 50 mM NaCl, 10 mM Mg acetate, 0.5 mM TCEP, 0.01% Tween 20, 0.1 mg/ml BSA, 25 °C; 5 nM DNA, 0-75 nM TFAM. The settings on record: protein: recombinant; tags: N-terminal 6xHis, TEV-cleaved; label: Atto565 at 5' non-template, Atto647N at 5' template; blunt.

Series [2] concerns the target T1, TFAM. In words: fluorescence anisotropy; 10 mM Mg acetate; apparent Kd; 50 mM Tris acetate pH 7.5, 100 mM Na glutamate, 50 mM NaCl, 10 mM Mg acetate, 0.5 mM TCEP, 0.01% Tween 20, 0.1 mg/ml BSA, 25 °C; 5 nM DNA, 0-75 nM TFAM. The settings on record: protein: recombinant; tags: N-terminal 6xHis, TEV-cleaved; label: fluorescein (FITC) at 3' end of template strand; blunt. On the technique in general: Fluorescence polarisation rises when a labelled molecule tumbles more slowly, as on binding a larger partner.

In series [3] the target is T1, TFAM. In words: smFRET; bending equilibrium K(F/P) 24.6 ± 7.6; 50 mM Tris acetate pH 7.5, 100 mM Na glutamate, 50 mM NaCl, 10 mM Mg acetate, 0.5 mM TCEP, 0.01% Tween 20, 0.1 mg/ml BSA, 25 °C; 5 nM DNA, 0-75 nM TFAM. The settings on record: protein: recombinant; tags: N-terminal 6xHis, TEV-cleaved; label: Atto565 at 5' non-template, Atto647N at 5' template; blunt.
Series [4] deals with T2, TFAM-ΔC26 (C-tail deletion) (UniProt Q00059 43-220).
T2 sequence: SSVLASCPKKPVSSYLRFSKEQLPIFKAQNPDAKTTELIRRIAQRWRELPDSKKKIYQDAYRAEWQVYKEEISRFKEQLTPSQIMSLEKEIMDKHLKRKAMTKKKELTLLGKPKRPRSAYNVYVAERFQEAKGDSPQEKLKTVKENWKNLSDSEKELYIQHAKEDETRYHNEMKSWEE
Briefly: fluorescence anisotropy; 10 mM Mg acetate; 50 mM Tris acetate pH 7.5, 100 mM Na glutamate, 50 mM NaCl, 10 mM Mg acetate, 0.5 mM TCEP, 0.01% Tween 20, 0.1 mg/ml BSA, 25 °C; 5 nM DNA, 0-75 nM TFAM. The settings on record: protein: recombinant; tags: SUMO fusion, cleaved; label: fluorescein (FITC) at 3' end of template strand; blunt.

Series [5] addresses T1, TFAM. Briefly: smFRET; bending equilibrium K(F/P) 0.59 ± 0.24; 50 mM Tris acetate pH 7.5, 100 mM Na glutamate, 50 mM NaCl, 10 mM Mg acetate, 0.5 mM TCEP, 0.01% Tween 20, 0.1 mg/ml BSA, 25 °C; 5 nM DNA, 0-75 nM TFAM. The settings on record: protein: recombinant; tags: N-terminal 6xHis, TEV-cleaved; label: Atto565 at 5' non-template, Atto647N at 5' template; blunt.

B1: HSP, Atto565/Atto647N (dsDNA)
DNA 1: CACACCGCTGCTAACCCCATACCCCGAACC
DNA 2: GGTTCGGGGTATGGGGTTAGCAGCGGTGTG
modifications: biotin-2xPEG18 at 3' end of template
On to B1, for which the binding result with TFAM [1] is “binds”.

B2: LSP (-41 to -12), fluorescein (dsDNA)
DNA 1: TGTGTTAGTTGGGGGGTGACTGTTAAAAGT
DNA 2: ACTTTTAACAGTCACCCCCCAACTAACACA
On to B2, for which the Kd in the series with TFAM [2] was about 9 nM.

B3: LSP, Atto565/Atto647N (dsDNA)
DNA 1: B2 DNA 1
DNA 2: B2 DNA 2
modifications: biotin-2xPEG18 at 3' end of template
As for B3, the binding result with TFAM [3] was “binds”.

B4: NS (non-specific), fluorescein (dsDNA)
DNA 1: TAGCAGGAGCAGGAACAGGATGAACAAGCA
DNA 2: TGCTTGTTCATCCTGTTCCTGCTCCTGCTA
Consider B4, for which the values for the Kd (in series [4]; in the series with TFAM [2]) were about 100 nM and about 44 nM, respectively.

B5: HSP (-41 to -12), fluorescein (dsDNA)
DNA 1: B1 DNA 1
DNA 2: B1 DNA 2
As for B5, the figures for the Kd (in series [4]; in the series with TFAM [2]) were about 100 nM and about 43 nM, respectively.

B6: NS, Atto565/Atto647N (dsDNA)
DNA 1: B4 DNA 1
DNA 2: B4 DNA 2
modifications: biotin-2xPEG18 at 3' end of template
Regarding B6, the binding result in the series with TFAM [5] was “binds”.
